Test results: patent publication US20240182536A1 (MURAL ONCOLOGY, published 2024)
Changes are numbered by the printed parent chain. Names may count otherwise.

T1: IL-18 receptors on HEK-Blue IL-18 reporter cells (InvivoGen) (UniProt Q13478 19-541; O95256 20-599)
T1 sequence (looked up) 1: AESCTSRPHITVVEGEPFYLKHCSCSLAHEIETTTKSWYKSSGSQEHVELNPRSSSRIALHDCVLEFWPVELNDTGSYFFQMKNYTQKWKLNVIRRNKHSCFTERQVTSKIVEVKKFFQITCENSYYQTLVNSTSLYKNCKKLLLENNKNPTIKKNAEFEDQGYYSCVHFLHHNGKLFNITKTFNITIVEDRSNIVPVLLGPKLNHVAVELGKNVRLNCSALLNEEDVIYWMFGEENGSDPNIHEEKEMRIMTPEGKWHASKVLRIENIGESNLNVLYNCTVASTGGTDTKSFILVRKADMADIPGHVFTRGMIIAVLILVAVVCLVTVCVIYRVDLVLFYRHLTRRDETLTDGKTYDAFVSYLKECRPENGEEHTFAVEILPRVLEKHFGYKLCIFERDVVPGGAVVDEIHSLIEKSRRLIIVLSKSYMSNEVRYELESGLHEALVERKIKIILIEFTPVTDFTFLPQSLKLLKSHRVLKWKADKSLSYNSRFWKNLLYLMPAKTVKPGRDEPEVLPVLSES
T1 sequence (looked up) 2: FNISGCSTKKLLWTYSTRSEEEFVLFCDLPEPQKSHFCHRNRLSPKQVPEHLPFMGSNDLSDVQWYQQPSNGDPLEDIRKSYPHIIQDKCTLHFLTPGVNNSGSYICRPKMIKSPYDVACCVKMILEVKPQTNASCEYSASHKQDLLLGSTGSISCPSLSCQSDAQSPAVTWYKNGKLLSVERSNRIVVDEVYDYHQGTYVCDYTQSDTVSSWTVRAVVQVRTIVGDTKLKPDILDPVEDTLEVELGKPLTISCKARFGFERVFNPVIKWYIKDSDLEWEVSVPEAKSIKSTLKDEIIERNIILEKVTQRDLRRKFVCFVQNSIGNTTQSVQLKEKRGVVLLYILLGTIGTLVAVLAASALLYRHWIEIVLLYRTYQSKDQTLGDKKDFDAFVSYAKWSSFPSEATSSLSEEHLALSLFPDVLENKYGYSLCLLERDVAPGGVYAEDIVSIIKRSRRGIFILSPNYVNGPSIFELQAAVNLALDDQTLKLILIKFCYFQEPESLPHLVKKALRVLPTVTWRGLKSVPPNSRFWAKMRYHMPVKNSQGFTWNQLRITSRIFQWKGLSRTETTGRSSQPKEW

T2: human IL-18 binding protein (IL-18BP) (human, UniProt O95998 31-194)
T2 sequence (looked up): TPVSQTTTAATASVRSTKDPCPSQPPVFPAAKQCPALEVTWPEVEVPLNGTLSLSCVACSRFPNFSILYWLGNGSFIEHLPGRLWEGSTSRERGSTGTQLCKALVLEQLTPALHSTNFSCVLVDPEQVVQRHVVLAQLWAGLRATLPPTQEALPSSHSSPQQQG

T3: IL-18 receptor (IL-18Rα and IL-18Rβ) (UniProt Q13478 19-541; O95256 20-599, limits assumed)
T3 sequence (looked up) 1: T1 sequence (looked up) 1
T3 sequence (looked up) 2: T1 sequence (looked up) 2

T4: interleukin 18 binding protein (IL-18BP) (UniProt O95998 31-194)
T4 sequence (looked up): T2 sequence (looked up)

T5: mouse IL-18 receptor alpha (mouse, UniProt Q61098 20-326, limits assumed)
T5 construct: also called Mouse IL18Ra; mouse IL-18R alpha
T5 sequence (looked up): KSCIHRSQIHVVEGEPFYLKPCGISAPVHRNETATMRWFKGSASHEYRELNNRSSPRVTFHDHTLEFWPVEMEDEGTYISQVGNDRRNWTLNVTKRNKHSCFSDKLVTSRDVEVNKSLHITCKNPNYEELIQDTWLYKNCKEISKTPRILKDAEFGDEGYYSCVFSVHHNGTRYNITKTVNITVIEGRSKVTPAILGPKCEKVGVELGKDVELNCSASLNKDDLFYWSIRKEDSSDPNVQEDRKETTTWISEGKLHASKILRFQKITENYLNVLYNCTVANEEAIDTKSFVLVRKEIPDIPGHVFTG

T6: mouse IL-18 binding protein (mouse, UniProt Q9Z0M9 29-193)
T6 construct: also called Mouse IL18BP; Mouse IL-18BP
T6 sequence (looked up): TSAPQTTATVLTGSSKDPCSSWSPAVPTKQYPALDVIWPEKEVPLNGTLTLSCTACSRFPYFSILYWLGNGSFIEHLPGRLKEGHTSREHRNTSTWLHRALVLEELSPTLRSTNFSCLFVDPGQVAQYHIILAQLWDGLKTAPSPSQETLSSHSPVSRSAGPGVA

T7: IL-18 receptors on HEK-Blue IL-18 reporter cells (UniProt Q13478 19-541; O95256 20-599, limits assumed)
T7 sequence (looked up) 1: T1 sequence (looked up) 1
T7 sequence (looked up) 2: T1 sequence (looked up) 2

T8: human IL-18 binding protein (human, UniProt O95998 31-194)
T8 sequence (looked up): T2 sequence (looked up)

B1: IL-18 variant G3A, N91L, K53S (ligand)
chain: YFAKLESKLSVIRNLNDQVLFIDQGNRPLFEDMTDSDMRDNAPRTIFIISMYSDSQPRGMAVTISVKSEKISTLSSENKIISFKEMNPPDLIKDTKSDIIFFQRSVPGHDNKMQFESSSYEGYFLASEKERDLFKLILKKEDELGDRSIMFTVQNED
B2: IL-18 variant G3K, N91I, K53S (ligand)
chain: B1 chain with A3K, L91I
B3: IL-18 variant G3F, N91E, K53S (ligand)
chain: B1 chain with A3F, L91E
notes: also called G3F/K53S/N91E
B4: IL-18 variant G3R, N91A, K53S (ligand)
chain: B1 chain with A3R, L91A
notes: also called G3R/K53S/N91A
B5: IL-18 variant G3R, N91M, K53A (ligand)
chain: B1 chain with A3R, S53A, L91M
notes: also called G3R/K53A/N91M
B6: IL-18 variant G3R, N91S, K53A (ligand)
chain: B1 chain with A3R, S53A, L91S
B7: IL-18 variant G3P, E6K, D54Y, S55P, T63S, N91S, R104Q (ligand)
chain: B1 chain with A3P, E6K, S53K, D54Y, S55P, T63S, L91S, R104Q
B8: IL-18 variant G3P, E6K, D54Y, S55P, Q56H, T63S, N91S, R104Q (ligand)
chain: B1 chain with A3P, E6K, S53K, D54Y, S55P, Q56H, T63S, L91S, R104Q
B9: IL-18 variant G3P, E6V, K53A, D54W, S55P, T63S, N91L, R104K (ligand)
chain: B1 chain with A3P, E6V, S53A, D54W, S55P, T63S, R104K
B10: IL-18 variant G3Q, E6H, K53T, D54S, S55Y, N91Y, R104K (ligand)
chain: B1 chain with A3Q, E6H, S53T, D54S, S55Y, L91Y, R104K
B11: IL-18 variant G3P, E6K, D54Y, S55P, T63S, N91S, R104Q, Q154R (ligand)
chain: B1 chain with A3P, E6K, S53K, D54Y, S55P, T63S, L91S, R104Q, Q154R
B12: Comparator 5 on monoFc scaffold (Fc fusion, not shown: small tags and cut ends)
chain: HFGRLHCTTAVIRNINDQVLFVDKRQPVFEDMTDIDQSASEPQTRLIIYAYGDSRARGKAVTLSVKDSKMSTLSCKNKIISFEEMDPPENIDDIQSDLIFFQKRVPGHNKMEFESSLYEGHFLACQKEDDAFKLILKKKDENGDKSVMFTLTNLHQSNGGPSVFLFPPKPKDTLMISRTPEVTCVVVDVSHEDPEVKFNWYVDGVEVHNAKTKPREEQYNSTYRVVSVLTVLHQDWLNGKEYKCKVSNKALPAPIEKTISKAKGQPREPQVYTLPPSREEMTKNQVNLTCLVKGFYPSDIAVEWESNGQPENNYKTTPPVLDSDGSFFLNSTLTVDKSRWQQGNVFSCSVMHEALHNHYTQKSLSLS
B13: mouse IL-18 G3V/L59M on monoFc scaffold (Fc fusion, not shown: small tags and cut ends)
chain: B12 chain with H1N, G3V, C7S, A50M, G52K, R55E, A56V, K59M, C75S, C125S
B14: mouse IL-18 G3V/H6K/L59K on monoFc scaffold (Fc fusion, not shown: small tags and cut ends)
chain: B12 chain with H1N, G3V, H6K, C7S, A50M, G52K, R55E, A56V, C75S, C125S
B15: mouse IL-18 G3T/H6K/L59K on monoFc scaffold (Fc fusion, not shown: small tags and cut ends)
chain: B12 chain with H1N, G3T, H6K, C7S, A50M, G52K, R55E, A56V, C75S, C125S
B16: mouse IL-18 G3V/L59K on monoFc scaffold (Fc fusion, not shown: small tags and cut ends)
chain: B12 chain with H1N, G3V, C7S, A50M, G52K, R55E, A56V, C75S, C125S
B17: mouse IL-18 G3V/L59R on monoFc scaffold (Fc fusion, not shown: small tags and cut ends)
chain: B12 chain with H1N, G3V, C7S, A50M, G52K, R55E, A56V, K59R, C75S, C125S
B18: mouse IL-18 G3T/L59K on monoFc scaffold (Fc fusion, not shown: small tags and cut ends)
chain: B12 chain with H1N, G3T, C7S, A50M, G52K, R55E, A56V, C75S, C125S
B19: human IL-18 variant G3V/M60K (ligand)
chain: B1 chain with A3V, S53K, M60K, L91N
B20: human IL-18 variant G3V/E6K/K53A (ligand)
chain: B1 chain with A3V, E6K, S53A, L91N

target: T1, IL-18 receptors on HEK-Blue IL-18 …; experiment: cell-based or functional assay

Binder	HEK-Blue Ec50 (pM), -IL-18BP [pM]
B1	0.71
B2	0.2
B3	2.55
B4	0.25
B5	0.06
B6	0.05

target: T2, human IL-18 binding protein (IL-18BP); experiment: cell-based or functional assay

Binder	HEK-Blue Ec50 (pM), +IL-18BP (50 nM) [pM]
B1	5.82
B2	7.05
B3	10.7
B4	2.27
B5	1.67
B6	2.8

target: T3, IL-18 receptor (IL-18Rα and IL-18Rβ); experiment: cell-based or functional assay

Binder	EC50 (pM) - BP, HEK-blue re-screening [pM]
B7	0.73
B8	1.58
B9	8.21
B10	2.63
B11	1.09

target: T4, interleukin 18 binding protein (IL-18BP); experiment: cell-based or functional assay

Binder	EC50 (pM) + 300 nM BP, HEK-blue re-screening [pM]	Ratio (HEK-blue EC50, + 300 nM BP against - BP)
B7	1.18	1.6
B8	2.99	1.9
B9	15.8	1.9
B10	4.69	1.8
B11	2.58	2.4

target: T5, mouse IL-18 receptor alpha; experiment: Octet BLI, monoFc scaffold
Procedure: (§1) Octet 96red instrument was used to determine affinities of IL18 proteins to BP or receptors. 5-10 ug/ml analyte proteins were used for loading on Sartorius tips (AHC or SA). […] 120-180 s loading, 200 s association and 800 s dissociation were used for kinetics. 3-7 data points were used to calculate affinities.
(§2) Several mouse variants were next tested for binding affinity to mouse IL-18R alpha and mouse IL-18BP.

Binder	Kd [nM]
B12	1.27
B13	17.4
B14	24.2
B15	12.8
B16	14.5
B17	51.5
B18	12.3

target: T6, mouse IL-18 binding protein; experiment: Octet BLI, monoFc scaffold
Procedure: as §1, §2

Binder	binding result	Kd [nM]
B12	no binding	
B13		2.47
B14	no binding	
B15	no binding	
B16	no binding	
B17	no binding	
B18	no binding	

target: T7, IL-18 receptors on HEK-Blue IL-18 …; experiment: cell-based or functional assay

Binder	HEK-blue EC50 (pM) - BP [pM]
B19	1.43
B20	0.05

target: T8, human IL-18 binding protein; experiment: cell-based or functional assay

Binder	HEK-blue EC50 (pM) + 1000 nM BP [pM]
B19	1.05
B20	1.26

target: T7, IL-18 receptors on HEK-Blue IL-18 …; experiment: cell-based or functional assay; remark: another data set of the same source

Binder	HEK-blue EC50 (pM) - BP [pM]
B19	0.042
B20	0.038

target: T8, human IL-18 binding protein; experiment: cell-based or functional assay; remark: another data set of the same source

Binder	HEK-blue EC50 (pM) + 300 nM BP [pM]
B19	0.507
B20	1.68

target: T2, human IL-18 binding protein (IL-18BP); experiment: Octet BLI
Procedure: as §1
Select G3/K53-substitution containing IL-18 variants and select G3/K53/N91-substitution containing TL-18 variants were tested for activity in the HEK-blue activity assay and for binding affinity to IL-18BP. As shown in the data of Table 15 and Table 16 below, each variant had similar or better activity than WT IL-18, and retained substantial activity in the presence of IL-18BP.

Binder	Kd [nM]	koff [s⁻¹]	kon [M⁻¹ s⁻¹]
B1	4.8	0.00103	216000
B2	1.9	0.000406	218000
B3	9.1	0.00195	213000
B4	3.4	0.000728	213000
B5	1.5	0.00031	208000
B6	0.9	0.000162	191000
